Measured values: article PMC9482650, “Quantitative fragmentomics allow affinity mapping of interactomes” (Nature Communications, 2022)

T1: APBA1_1, Q02410
T1 sequence (Q02410 651-752, limits assumed, looked up): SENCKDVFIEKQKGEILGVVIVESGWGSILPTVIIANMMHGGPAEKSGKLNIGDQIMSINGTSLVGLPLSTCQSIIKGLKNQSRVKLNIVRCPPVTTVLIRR

T2: APBA2_1, Q99767
T2 sequence (Q99767 563-664, limits assumed, looked up): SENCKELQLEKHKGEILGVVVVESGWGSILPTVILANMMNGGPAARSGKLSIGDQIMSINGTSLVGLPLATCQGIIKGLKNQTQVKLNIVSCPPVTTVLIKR

T3: APBA2_2, Q99767
T3 sequence (Q99767 654-744, limits assumed, looked up): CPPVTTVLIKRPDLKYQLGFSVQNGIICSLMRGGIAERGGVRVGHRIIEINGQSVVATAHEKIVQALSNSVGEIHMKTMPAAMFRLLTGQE

T4: APBA3_1, O96018
T4 sequence (O96018 389-490, limits assumed, looked up): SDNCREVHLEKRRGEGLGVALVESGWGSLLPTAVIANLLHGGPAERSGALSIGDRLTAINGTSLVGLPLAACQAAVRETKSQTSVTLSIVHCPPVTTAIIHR

T5: DFNB31_3, Q9P202
T5 sequence (Q9P202 811-907, limits assumed, looked up): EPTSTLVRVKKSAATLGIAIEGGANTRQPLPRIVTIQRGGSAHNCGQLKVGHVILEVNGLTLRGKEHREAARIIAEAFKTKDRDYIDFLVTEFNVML

T6: DVL3, Q92997
T6 sequence (Q92997 244-331, limits assumed, looked up): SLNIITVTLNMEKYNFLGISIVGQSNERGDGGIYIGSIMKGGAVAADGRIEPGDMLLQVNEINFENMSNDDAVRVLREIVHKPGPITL

T7: HTRA4, P83105
T7 sequence (P83105 378-476, limits assumed, looked up): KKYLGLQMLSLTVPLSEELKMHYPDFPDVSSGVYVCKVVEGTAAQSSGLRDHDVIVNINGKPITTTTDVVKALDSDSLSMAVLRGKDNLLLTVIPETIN

T8: LIN7B, Q9HAP6
T8 sequence (Q9HAP6 88-185, limits assumed, looked up): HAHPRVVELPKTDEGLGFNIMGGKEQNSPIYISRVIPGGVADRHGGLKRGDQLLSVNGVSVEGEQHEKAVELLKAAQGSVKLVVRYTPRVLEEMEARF

T9: MPDZ_10, O75970
T9 sequence (O75970 1624-1722, limits assumed, looked up): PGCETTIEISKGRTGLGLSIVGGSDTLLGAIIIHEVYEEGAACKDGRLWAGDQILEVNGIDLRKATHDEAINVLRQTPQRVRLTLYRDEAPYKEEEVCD

T10: NHERF3_4, Q5T2W1
T10 sequence (Q5T2W1 373-468, limits assumed, looked up): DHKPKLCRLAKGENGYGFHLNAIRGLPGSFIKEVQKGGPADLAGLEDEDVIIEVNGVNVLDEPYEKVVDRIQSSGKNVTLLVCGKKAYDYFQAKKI

T11: PDZD7_3, Q9H5P4
T11 sequence (Q9H5P4 857-944, limits assumed, looked up): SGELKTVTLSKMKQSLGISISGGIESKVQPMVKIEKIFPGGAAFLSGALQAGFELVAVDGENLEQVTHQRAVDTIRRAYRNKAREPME

T12: SIPA1L2, Q9P2F8
T12 sequence (Q9P2F8 945-1036, limits assumed, looked up): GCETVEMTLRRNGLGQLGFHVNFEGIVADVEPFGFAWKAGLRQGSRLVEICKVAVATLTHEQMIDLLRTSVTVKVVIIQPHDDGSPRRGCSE

T13: SYNJ2BP, P57105
T13 sequence (P57105 8-110, limits assumed, looked up): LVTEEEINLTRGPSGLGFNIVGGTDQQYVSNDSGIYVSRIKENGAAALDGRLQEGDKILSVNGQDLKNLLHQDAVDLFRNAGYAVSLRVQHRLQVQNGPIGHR


Legend:
Test in all cases: holdup assay
Design in all cases: key: below the threshold = too weak to quantify, mostly under pKd 3.1 to 4
Conditions in all cases: plain residues with an end cap or a label only (N-terminal biotin on a linker: ado-ado)
APBA1_1, Q02410 = molecular target: T1, APBA1_1, Q02410
APBA2_1, Q99767 = molecular target: T2, APBA2_1, Q99767
APBA2_2, Q99767 = molecular target: T3, APBA2_2, Q99767
APBA3_1, O96018 = molecular target: T4, APBA3_1, O96018
DFNB31_3, Q9P202 = molecular target: T5, DFNB31_3, Q9P202
DVL3, Q92997 = molecular target: T6, DVL3, Q92997
FRMPD4, Q14CM0 = molecular target: FRMPD4, Q14CM0
GRASP, Q7Z6J2 = molecular target: GRASP, Q7Z6J2
GRIP2_3, Q9C0E4 = molecular target: GRIP2_3, Q9C0E4
GRIP2_7, Q9C0E4 = molecular target: GRIP2_7, Q9C0E4
HTRA4, P83105 = molecular target: T7, HTRA4, P83105
Inadl_2, Q8NI35 = molecular target: Inadl_2, Q8NI35
LIN7B, Q9HAP6 = molecular target: T8, LIN7B, Q9HAP6
MAGI2_4, Q86UL8 = molecular target: MAGI2_4, Q86UL8
MAGI3_2, Q5TCQ9 = molecular target: MAGI3_2, Q5TCQ9
MAST2, Q6P0Q8 = molecular target: MAST2, Q6P0Q8
MPDZ_10, O75970 = molecular target: T9, MPDZ_10, O75970
NHERF3_4, Q5T2W1 = molecular target: T10, NHERF3_4, Q5T2W1
PDLIM1, O00151 = molecular target: PDLIM1, O00151
PDZD7_3, Q9H5P4 = molecular target: T11, PDZD7_3, Q9H5P4
SIPA1L2, Q9P2F8 = molecular target: T12, SIPA1L2, Q9P2F8
SNX27, Q96L92 = molecular target: SNX27, Q96L92
SYNJ2BP, P57105 = molecular target: T13, SYNJ2BP, P57105
TJP2_1, Q9UDY2 = molecular target: TJP2_1, Q9UDY2
Sequence of TJP2_1, Q9UDY2 (Q9UDY2 24-128): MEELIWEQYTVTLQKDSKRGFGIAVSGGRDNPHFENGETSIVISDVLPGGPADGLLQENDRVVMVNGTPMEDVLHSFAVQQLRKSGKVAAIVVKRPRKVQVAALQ

Sequence of Inadl_2, Q8NI35 (Q8NI35 238-335): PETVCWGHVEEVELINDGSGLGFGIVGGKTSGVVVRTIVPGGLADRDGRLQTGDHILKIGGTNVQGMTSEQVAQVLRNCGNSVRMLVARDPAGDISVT
Sequence of FRMPD4, Q14CM0 (Q14CM0 67-160): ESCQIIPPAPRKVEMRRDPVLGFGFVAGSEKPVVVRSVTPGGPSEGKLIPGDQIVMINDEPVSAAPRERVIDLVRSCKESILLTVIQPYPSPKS
Sequence of PDLIM1, O00151 (O00151 1-87): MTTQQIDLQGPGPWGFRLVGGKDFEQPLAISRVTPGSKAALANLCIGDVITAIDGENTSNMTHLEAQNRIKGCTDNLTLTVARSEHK
Sequence of GRIP2_3, Q9C0E4 (Q9C0E4 238-339): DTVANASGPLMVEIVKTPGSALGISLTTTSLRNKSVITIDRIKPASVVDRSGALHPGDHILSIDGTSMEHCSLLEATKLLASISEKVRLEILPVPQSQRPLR
Sequence of MAGI3_2, Q5TCQ9 (Q5TCQ9 398-503): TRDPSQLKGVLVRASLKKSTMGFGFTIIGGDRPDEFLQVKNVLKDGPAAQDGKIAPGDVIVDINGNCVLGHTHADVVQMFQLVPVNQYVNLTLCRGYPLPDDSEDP
Sequence of GRASP, Q7Z6J2 (Q7Z6J2 96-193): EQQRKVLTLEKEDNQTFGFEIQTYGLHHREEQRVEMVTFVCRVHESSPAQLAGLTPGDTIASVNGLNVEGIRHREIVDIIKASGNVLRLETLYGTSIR
Sequence of MAST2, Q6P0Q8 (Q6P0Q8 1099-1202): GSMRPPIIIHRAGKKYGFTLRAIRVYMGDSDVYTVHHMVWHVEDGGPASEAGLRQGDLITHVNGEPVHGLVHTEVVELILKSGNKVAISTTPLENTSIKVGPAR
Sequence of MAGI2_4, Q86UL8 (Q86UL8 772-865): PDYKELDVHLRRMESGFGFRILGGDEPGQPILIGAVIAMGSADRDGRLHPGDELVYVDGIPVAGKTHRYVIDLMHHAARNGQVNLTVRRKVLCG
Sequence of GRIP2_7, Q9C0E4 (Q9C0E4 934-1023): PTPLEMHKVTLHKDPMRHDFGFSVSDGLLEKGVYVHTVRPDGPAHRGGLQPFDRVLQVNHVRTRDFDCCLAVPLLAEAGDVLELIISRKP

pKd (APBA1_1, Q02410)	pKd (APBA2_1, Q99767)	pKd (APBA2_2, Q99767)	pKd (APBA3_1, O96018)	pKd (DFNB31_3, Q9P202)	pKd (DVL3, Q92997)	pKd (FRMPD4, Q14CM0)	pKd (GRASP, Q7Z6J2)	pKd (GRIP2_3, Q9C0E4)	pKd (GRIP2_7, Q9C0E4)	pKd (HTRA4, P83105)	pKd (Inadl_2, Q8NI35)	pKd (LIN7B, Q9HAP6)	pKd (MAGI2_4, Q86UL8)	pKd (MAGI3_2, Q5TCQ9)	pKd (MAST2, Q6P0Q8)	pKd (MPDZ_10, O75970)	pKd (NHERF3_4, Q5T2W1)	pKd (PDLIM1, O00151)	pKd (PDZD7_3, Q9H5P4)	Binder	further results
below the threshold	below the threshold	below the threshold	below the threshold	below the threshold	below the threshold	3.79	4.55	below the threshold	below the threshold	4.08	below the threshold	below the threshold	4.63	5.18	5.66	below the threshold	below the threshold	below the threshold	4.61	RRRESYSTTV [EVI5, O60447]	pKd (SIPA1L2, Q9P2F8): 3.47; pKd (SNX27, Q96L92): 4.79; pKd (SYNJ2BP, P57105): 4.89; pKd (TJP2_1, Q9UDY2): 4.84
below the threshold	below the threshold	below the threshold	below the threshold	3.79	below the threshold	below the threshold	below the threshold	below the threshold	below the threshold	4	below the threshold	3.85	below the threshold	4.4	3.61	3.67	below the threshold	below the threshold	below the threshold	LRSPRTPSEV [OR10G3, Q8NGC4]	pKd (SIPA1L2, Q9P2F8): below the threshold; pKd (SNX27, Q96L92): below the threshold; pKd (SYNJ2BP, P57105): 4.61; pKd (TJP2_1, Q9UDY2): below the threshold
